Reference: publication PMC2873477, “Reconstruction of xylose utilization pathway and regulons in Firmicutes” (BMC Genomics, 2010)

Legend:
[1] = molecular target: T1, XylR (Clostridium acetobutylicum ATCC 824) (UniProt Q97D10); assay: EMSA; details: 10 mM Tris pH 7.5, 50 mM KCl, 1 mM DTT, 2.5% glycerol, 5 mM MgCl2, 0.05% NP-40, 2 ug salmon sperm DNA in 20 ul, 28 C 20 min; 6% native PAGE 0.5x TBE at 4 C
T1 sequence: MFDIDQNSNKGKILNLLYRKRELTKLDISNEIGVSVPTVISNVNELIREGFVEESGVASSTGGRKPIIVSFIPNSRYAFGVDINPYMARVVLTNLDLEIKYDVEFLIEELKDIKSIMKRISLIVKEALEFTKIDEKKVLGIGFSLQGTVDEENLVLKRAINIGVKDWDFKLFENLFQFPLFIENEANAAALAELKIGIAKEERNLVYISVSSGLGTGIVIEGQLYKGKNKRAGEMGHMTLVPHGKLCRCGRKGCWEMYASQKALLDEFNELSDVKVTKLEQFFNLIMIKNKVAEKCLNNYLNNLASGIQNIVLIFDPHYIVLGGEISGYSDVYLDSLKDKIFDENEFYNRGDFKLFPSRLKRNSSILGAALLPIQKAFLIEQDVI

XylB = molecular target: T2, XylB (Clostridium acetobutylicum, UniProt Q97FW4); assay: coupled pyruvate kinase / lactate dehydrogenase assay, NADH at […] nm; type: biochemical; details: 50 mM Tris pH 7.5, 10 mM MgSO4, 1.2 mM ATP, 1 mM D-xylulose
T2 construct: full-length coding region, N-terminal His6 tag (pET28a), E. coli BL21(DE3), Ni-NTA purified
T2 sequence (Q97FW4 1-500): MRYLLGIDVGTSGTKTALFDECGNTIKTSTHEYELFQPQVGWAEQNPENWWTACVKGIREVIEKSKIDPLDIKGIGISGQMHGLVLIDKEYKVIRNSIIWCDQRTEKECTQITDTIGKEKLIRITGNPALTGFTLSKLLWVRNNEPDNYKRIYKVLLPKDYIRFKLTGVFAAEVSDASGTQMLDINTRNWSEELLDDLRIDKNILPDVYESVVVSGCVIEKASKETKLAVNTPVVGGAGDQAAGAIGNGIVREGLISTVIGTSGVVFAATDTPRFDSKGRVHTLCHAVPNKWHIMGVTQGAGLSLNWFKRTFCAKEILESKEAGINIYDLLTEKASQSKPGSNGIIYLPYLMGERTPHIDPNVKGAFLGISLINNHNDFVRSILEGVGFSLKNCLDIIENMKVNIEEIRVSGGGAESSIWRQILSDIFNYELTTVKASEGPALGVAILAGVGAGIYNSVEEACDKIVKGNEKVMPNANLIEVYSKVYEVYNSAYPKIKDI

Compound | binding [1] | coupled pyruvate kinase / lactate dehydrogenase assay, NADH at 340 nm (XylB)
CACCAACCTTAATCACTAGTATTTTACTTTACCTTCATATTGTACCATATACTATATCCCCACAAAAGCCTTTATAAAGTTGTTTTATAAAGTATATATACTATGTATATTTTTTCTTATATAGTTTTAATACAAAAATGAAGTAAAGATATCAATTATATATCTTTACTTCACTTACGT (double strand) [xylR upstream fragment] | binds | 
CTCCCCATATAATTTAAATTGGTTTTATTTAAAAAATATCTTACCAATATGATTTAAACTTCTCTAATAAATATATGTTTTTAAAGTTTGTTTAATAAGTTTTTTAGATAATCTACTCTTTAAATAAAAGCGCTCCTACTTTTAACTATTTATATATCTTTTATTTTAGGATAAGCTGAA (double strand) [CAC2611-xylA-II upstream fragment] | binds | 
AATCAAACCCCCTTAATTTTAAATAACTTTTTAAATATCCTTTAATAAGTCTATTTTACTTTTTTTACCTCCTACAGTCAATATGTTTTTGTAAACTTTTTCATTTTATTTATATAATGGCTTATATGGCACTGCATTTCACATAAAAATTGTAATAAAAAAAACTGCCCTTAAATTTTC (double strand) [xylB upstream fragment] | binds | 
Nc1ncnc2c1ncn2[C@@H]1O[C@H](COP(=O)(O)OP(=O)(O)OP(=O)(O)O)[C@@H](O)[C@H]1O [ATP] |  | coupling the formation of ADP to the oxidation of NADH to NAD^+
